T1: human IL-23R expressed on the cell surface of stably transfected iLite and HEK cell lines (human, UniProt Q5VWK5 24-629)
T1 construct: whole, on cells; Same receptor on two transfected cell lines; the cell line is named under assay; also called human IL-23R iLite cells; human IL-23R HEK cells
T1 sequence (looked up): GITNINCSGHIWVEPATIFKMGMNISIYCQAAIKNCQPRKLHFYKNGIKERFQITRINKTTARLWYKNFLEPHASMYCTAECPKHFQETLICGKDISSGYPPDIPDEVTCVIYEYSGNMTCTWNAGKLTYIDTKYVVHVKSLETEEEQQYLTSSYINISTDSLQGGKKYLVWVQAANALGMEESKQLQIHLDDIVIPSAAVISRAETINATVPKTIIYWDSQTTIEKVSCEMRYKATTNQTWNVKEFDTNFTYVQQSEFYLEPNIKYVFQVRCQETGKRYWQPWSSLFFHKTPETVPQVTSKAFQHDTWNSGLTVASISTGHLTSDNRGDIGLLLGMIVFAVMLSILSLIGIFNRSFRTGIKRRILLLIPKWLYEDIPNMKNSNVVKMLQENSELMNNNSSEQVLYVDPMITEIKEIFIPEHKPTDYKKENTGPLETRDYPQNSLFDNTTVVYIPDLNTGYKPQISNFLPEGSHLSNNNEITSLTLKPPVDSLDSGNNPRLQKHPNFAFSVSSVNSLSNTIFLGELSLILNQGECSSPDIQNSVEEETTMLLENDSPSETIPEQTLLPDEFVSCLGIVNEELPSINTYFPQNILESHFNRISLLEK

B1: I23RB36 (antibody, mouse IgG2a, kappa, V domains shown)
VH: QIQLVQSGAELVKPGASVKLSCTTSGFNIKDTYIHWMKQRPEQGLEWIGRIDPANGNTIYASKFQGKATLTTDTSSNTAYMLLSSLTSGDTAVYYCTRGTSWFAYWGQGTTVTVSS
VL: DIVMTQSPKSMSMSVGERVTLSCKASENVGTSVSWFQQKPEQSPKLLIYGASNRYTGVPDRFTGSGSATDFTLTISSVQAEDLADYHCGQSYSYPRTFGGGTKLEIKR
notes: immunization; mouse IgG2a/kappa
B2: I23RB27 (antibody, mouse IgG2a, kappa, V domains shown)
VH: QVQLKESGPDLVQPSQTLSLTCTVSGFSLTSYGVHWVRQPPGKGLEWVGTLGWDDKKSYNSALKSRLSISRDTSKSQVFLKLSSLQTEDTAMYYCTKEDVSYAMDFWGQGTTLTVSS
VL: DIQMTQSPTSLAVSLGQRATISCRASESVEYYGTSLMHWYQQKPGQPPKLLIYAASNVESGVPARFSGSGSGTDFSLNIHPVEEEDIAMYFCQQGKKVPWTFGAGTKLEMKR
notes: as for B1
B3: I23RB60 (antibody, mouse IgG2a, kappa, V domains shown)
VH: DVQLQESGPELVKPGDSVKMSCEASGYTFTDYYIDWVKQSHGKSLEWIGYIYPNNGGISFNQKFEGKATLTVDKSSSTAYMELHSLTSEDSAVYYCAREKLRGRDYWGQGTTLTVSS
VL: DIVMTQSTSSLSASLGDRVTISCRASQDIRNNLNWYQQKPDGTVKLLIFYSSRLHSGVPSRFSGSGSGTDYSLTISNLEQEDIATYFCQQGHTLPWTFGAGTKLELKR
notes: as for B1
B4: I23RB182 (antibody, mouse IgG2a, kappa, V domains shown)
VH: EVQLQQSGPGLVKPSQSLSLTCSVTGYSITSGYFWNWLRQFPGSKLEWMGFIDNDGSNDYNPSLKNRISITRDTSKNQFFLRLNSVTTEDTATYYCARGRLGFFDSWGPGTTLTVSS
VL: DIVMTQSPAIMSASLGEKVTMSCRASSSVNYMYWYQQKSDASPKLWIYYTSNLAPGVPARFSGSGSGNSYSLTISSMEGEDAATYYCQQFTNSPWTFGAGTKLELKR
notes: as for B1
B5: I23RB31 (antibody, mouse IgG2a, kappa, V domains shown)
VH: EFQLQQSGAEMVRPGASVKLSCKASGYTFTGYWMNWVKQRPGQGLEWIGKIDPSDTETHYNQNFKDKATLTVDKSSSTAYMQLNSLTSEDSAVYYCARWGLGRNFAMDYWGQGTTLTVSS
VL: DIVLTQSPATLSVTPGDRVSLSCRASQSISDHLHWYQQKSHESPRLLIKFASQSISGIPSRFSGSGSGSDFTLSIDSVEPEDVGVYYCQNGHSFPLTFGSGTKLEIKR
notes: as for B1
B6: I23RB77 (antibody, mouse IgG2a, kappa, V domains shown)
VH: DVQLQESGPGLVAPSQSLSITCTVSGFSLSRYSVHWVRQPPGKGLEWLGMIWGSGSTDYNSALKSRLSINKDNSKSQVFLKMNSLQTDDTAMYYCARVYYGGSPYAMDYWGQGTTVTVSS
VL: DIVMTQSPASLALSLGQRATISCRASESVDSYGNSFMHWYQQKPGQPPKLLIYLASNLESGVPARFSGSGSRTDFTLTIDPVEADDAAIYYCQQNNEEPNTFGAGTKLEMKR
notes: as for B1
B7: I23RB58 (antibody, mouse IgG2a, kappa, V domains shown)
VH: EVKLVESGGGLVKPGGSLKLSCAASGFSFIIYTMSWVRQTPEKRLEWVAYITSGGGITYYPDSVKGRFTISRDNARNTLYLQMSSLRSEDTAMYYCARHEGDYYDDYYRIGYAMDYWGQGTSVTVSS
VL: B6 VL with S7T, L13V, L54R, V62I, D80N, A87V, I89T, N95S, E98D, N100L
notes: as for B1
B8: I23RB71 (antibody, mouse IgG2a, kappa, V domains shown)
VH: DVQLQESGPDLVKPSQSLSLTCTVTDYSITRGYNWHWIRQFPGNKLEWMGYIHYSGSTNYNPSLKSRISITRDTSKNQFFLQLNSVTTEDTATYYCARQYGLKAMDYWGQGTSVTVSS
VL: DIVMTQSHKFMSTSVGDRVSITCKASQDVITAVAWYQQKPGQSPKLLIYSASYRYTGVPDRFTGSGSGTDFTFTISSVQAEDLAVYFCQQHFGTPYTFGSGTKLEMKR
notes: as for B1
B9: I23RB39 (antibody, mouse IgG2a, kappa, V domains shown)
VH: EVQLQQSGPELVKPGAPVKISCKASGYTFTNYYIHWVKQRPGQGLEWIGYIYPGNGGTAYNQKFKDKATLTADNPSSTAYMQLSSLTSEDSAVYFCARSRGGSRNYFDYWGQGTTLTVSS
VL: B8 VL with V3Q, I30S, S52F, F87Y, F92Y, G93S, T94S, Y96R, S100A, M106L
notes: as for B1
B10: I23RB61 (antibody, mouse IgG2a, kappa, V domains shown)
VH: DVQLQESGAELVKPGASVKLSCKSFDYTFTSFDINWMKQRPGQGLEWIGWIFPGSGTTNYNEKFKGKATLTADKSSSTAYMHLTSLTSEDSAVYFCARRLTGTRYFDVWGTGTTLTVSS
VL: DIQMTQSHKFLSTSVGDRITITCKASQDVITAVAWYQQKSGQSPKLLIYWASTRHTGVPDRFTGSGSGTDYTLTISNVQAEDLALYYCQQHYTTPPTFGAGTKLELKR
notes: as for B1
B11: I23RB173 (antibody, mouse IgG2a, kappa, V domains shown)
VH: DVQLQESGPGLVKPSQSLSLTCSVTGYSITSGYYWNWIRQFPGNKLEWMGYISYDGGNNYNPSLKNRISITRDTSKNQFFLKLNSVTTEDTATYYCARDAGLLPYYAMDYWGQGTTLTVSS
VL: DIKMTQSPAIMSASPGEKVTITCSASSSVSYMHWFQQKPGTSPKLWIYSTSNLASGVPARFSGSGSGTSYSLTISRMEAEDAATYYCQQRSSYPLTFGDGTKLEMKR
notes: as for B1
B12: I23RB188 (antibody, mouse IgG2a, kappa, V domains shown)
VH: QIQLVQSGPELKKPGETVKISCKASGYTFTNYGMNWVKQAPGKGLKWMGWINTYTGAPTYADDFKGRFAFSLETSASTAYLQINNFKNEDTATYFCARGNGYPYYYGINYWGQGTSVTVSS
VL: DVQMIQSPSSLSASLGERVSLTCRASQEISGNLSWLQQKPDGTIKRLIYAASTLDSGVPKRFSGSRSGSDYSLTISSLESEDFADYYCLQYASYPWTFGAGTRLEIKR
notes: as for B1
B13: I23RB73 (antibody, mouse IgG2a, kappa, V domains shown)
VH: EVQLQQSGAELVKPGASVKISCKASGYTFTDHAIHWVKQRPEQGLEWIGYISLGNGDIKYSEKFRGKATLTADKTSNTAYMQLNSLTSEDSAVYFCKRSRVLRWTTYWYFDVWGAGTSVTVSS
VL: DIVMTQSHKFMSTSVGDRVSITCKASQDVSTAVAWYQQKPGQSPKLLIYWASTRLTGVPDRFTGSGSGTDYTLTISSVQAEDLALYYCQQYYNTPLTFGAGTKLELKR
notes: as for B1
B14: I23RB74 (antibody, mouse IgG2a, kappa, V domains shown)
VH: DVQLQESGPGLVKPSQSLSLTCSVTGYSITSGYYWNWIRQFPGNKLEWMGYISYDGSFNYNPSLKNRLSITRDTSMNQFFLKLNSVTSEDTATYYCARAEIYYDYDGDFDYWGQGTTLTVSS
VL: DIVLTQSPASLAVSLGQRATISCRASKSVSTSGSNFLHWYQQKPGQPPKLLIYFASNLESGVPARFSGSGSGTDFTLNIHPVEEEDAATYYCQHSRELPHTFGAGTKLELKR
notes: as for B1
B15: I23RB169 (antibody, mouse IgG2a, kappa, V domains shown)
VH: QIQLVQSGPELKKPGETVKISCKASGYTFTTVGMQWVQKMPGKGFKWIGWINTHSGEPKYTDDFKGRFAFSLETSASTAYLQISNLKSEDTATYFCARSSALTGAFAYWGQGTLVTVSS
VL: B14 VL with V3K, L4M, G33D, S34Y, N35S, F36Y, L37M, F54L, H100R
notes: as for B1

The results in this text go back to patent US20250179196A1 (Janssen / Centocor, published 2025).

As a reminder, the EC50 is the concentration at which the effect is half-maximal.

Numbering of substitutions follows the chain as printed.

The target in one assay is T1, human IL-23R expressed on the cell …. Description: flow cytometry on human IL-23R HEK cells, Expt D (8-point, 96well). The gist of the method: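 Serially diluted IL-23R mAbs bound to mixed HEK-IL-23R and parental HEK cells for 30 min at 37 °C, in duplicate. After washes, 647 detection antibody geometric MFI measured on single viable (Sytox Green-negative) cells and fitted to a variable-slope dose-response against log mAb concentration.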
On the technique in general: In flow cytometry, cells or beads pass a laser one at a time.
B1 came in with an EC50 of 0.4 nM.

B2: the EC50 turned out to be 3.5 nM.

Molecule B3 gave an EC50 of 0.6 nM. Against the preceding molecule, the EC50 is about 5.8-fold lower.

The molecule B4 came in with an EC50 of 36.4 nM. Compared with the last molecule, the EC50 is about 61-fold higher.

Molecule B5 returned an EC50 of 1.7 nM.

In turn, B6 had an EC50 of 0.2 nM.

On to B7, for which the midpoint of the response, the EC50, lay at 23.1 nM.

In turn, B8 gave an EC50 of roughly 6.7 nM.

With B9, a half-maximal response (EC50) required 0.3 nM.

As to B10, the EC50 was 0.6 nM. Compared with the last molecule, the EC50 is about 2-fold higher.

In the case of B11, the EC50 stood at 0.4 nM. The EC50 values of the last two molecules are within 1.5-fold of each other.

Take B12: the response was half-maximal at 2 nM (EC50).

The molecule B13 gave an EC50 of 1.8 nM.

Regarding B14, the EC50 is 0.3 nM. This EC50 is about 6-fold lower than that of the molecule before.

B15 yielded an EC50 of 0.7 nM.

For a further assay the target is unchanged. Put plainly: flow cytometry on human IL-23R HEK cells, Expt E (11-point, 384well). The procedure, abridged:
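Antibody bound to HEK-IL-23R cells 30 min at 37 °C over 11 concentrations; after washes, Sytox Green added and cells run on iQue. Geometric MFI of 647 detection antibody on single viable cells fitted by variable-slope dose–response.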
B1: a half-maximal response (EC50) required 7.3 nM and the “MFI (6.4 nM)” value turned out to be 171000 MFI.

Consider B2, for which the EC50 is greater than 50 nM and the “MFI (6.4 nM)” value stood at 153000 MFI.

B3: a half-maximal response (EC50) required 27.7 nM and the “MFI (6.4 nM)” value turned out to be 93700 MFI.

Turning to B4, the EC50 was greater than 50 nM and the “MFI (6.4 nM)” value was determined as 26200 MFI.

In the case of B5, the EC50 was greater than 50 nM and the “MFI (6.4 nM)” value is 78600 MFI.

Consider B6, for which a half-maximal response (EC50) required 4.8 nM and the “MFI (6.4 nM)” value turned out to be 184000 MFI.

As to B7, the EC50 amounted to 11.6 nM and the “MFI (6.4 nM)” value came to 150000 MFI.

Consider B8, for which the response was half-maximal at 3.4 nM (EC50) and the “MFI (6.4 nM)” value stood at 110000 MFI.

Consider B9, for which the EC50 came to 3.8 nM and the “MFI (6.4 nM)” value amounted to 277000 MFI.

For the molecule B10, the EC50 is greater than 50 nM and the “MFI (6.4 nM)” value was 118000 MFI.

For B11, the EC50 was 7.4 nM and the “MFI (6.4 nM)” value was 100000 MFI.

Turning to B12, the EC50 was greater than 50 nM and the “MFI (6.4 nM)” value is 90100 MFI.

Regarding B13, it took 11.6 nM to reach a half-maximal effect (EC50) and the “MFI (6.4 nM)” value was 158000 MFI.

As for B14, it took 13 nM to reach a half-maximal effect (EC50) and the “MFI (6.4 nM)” value came to 185000 MFI.

For the molecule B15, a half-maximal effect (EC50) was put at 15.4 nM and the “MFI (6.4 nM)” value worked out at 132000 MFI.
